The test has as its target mitotic APC (Anaphase-Promoting Complex immunoprecipitated from mitotic Xenopus extract) (Xenopus). Nature of the test: immunoprecipitated APC-Cdc20 resuspended in mitotic extract with TAME, beads re-isolated, Western blot. Background: Immunoblotting shows a protein as a band on a membrane.

In turn, Cdc20 (endogenous Xenopus Cdc20) displayed a half-life of dissociation of 1 min.

The record behind these values is US20120115948A1.
